# Test results as given in patent US20240002479A1 (REGENTS OF THE UNIVERSITY OF MICHIGAN, published 2024).
# T1: DENV2 NS1 (dengue virus serotype 2 non-structural protein 1), wild type (Dengue virus 2, UniProt P29990 776-1127)
# T1 sequence: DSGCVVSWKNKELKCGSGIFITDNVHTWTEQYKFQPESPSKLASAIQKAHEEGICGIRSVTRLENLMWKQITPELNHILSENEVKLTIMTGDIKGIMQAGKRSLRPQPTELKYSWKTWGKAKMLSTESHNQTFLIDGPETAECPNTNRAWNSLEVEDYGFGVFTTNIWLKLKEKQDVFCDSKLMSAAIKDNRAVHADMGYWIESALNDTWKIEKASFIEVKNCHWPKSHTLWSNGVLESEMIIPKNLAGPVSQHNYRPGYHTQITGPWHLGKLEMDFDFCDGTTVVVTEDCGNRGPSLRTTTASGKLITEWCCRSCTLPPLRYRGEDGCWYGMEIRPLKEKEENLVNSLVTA
# What was measured:
# [1] = target: T1, DENV2 NS1 (dengue virus serotype 2 …); test: direct ELISA, 2B7 titrated on purified DENV2 NS1, OD450
# [2] = target: T1, DENV2 NS1 (dengue virus serotype 2 …); test: BLI, NS1 on anti-His tips; full-length 2B7, not Fab
# [3] = target: T1, DENV2 NS1 (dengue virus serotype 2 …); test: BLI, NS1 on anti-His tips; Fab, not full-length IgG
# [4] = target: T1, DENV2 NS1 (dengue virus serotype 2 …); test: BLI, NS1 on anti-His tips, n=2 preparations
Binder,EC50 (read off the curve) [1],Kd [2],Kd [3],Kd [4]
"anti-DENV NS1 IgG2b mouse monoclonal antibody (mAb) 2B7 (antibody, V domains shown) VH: EVQLQQSGPELVKPGASVKMSCKASGCTLTNCFMHWMKQKPGQDLEWIGYINPYNDMTKYSENFKGKATLTSDKSSSTAFMELSSLTSEDSAVYYCARGYLLRTGCFDYWGQGTTLTVSS VL: NIVLTQSPASLAVSLGQRATISCRASESVDSYGYSFMHWYQQKPGQPPKVLIYLASNLESGVPARFSGSGSRTDFTLTIDPVEADDAATYYCQQNNENPLTFGAGTKLELKR",~5 ng/mL,4.8 nM,,
"2B7 Fab (Fab, V domains shown) VH: EVQLQQSGPELVKPGASVKMSCKASGCTLTNCFMHWMKQKPGQDLEWIGYINPYNDMTKYSENFKGKATLTSDKSSSTAFMELSSLTSEDSAVYYCARGYLLRTGCFDYWGQGTTLTVSS VL: NIVLTQSPASLAVSLGQRATISCRASESVDSYGYSFMHWYQQKPGQPPKVLIYLASNLESGVPARFSGSGSRTDFTLTIDPVEADDAATYYCQQNNENPLTFGAGTKLELK",,,8.3 nM,5 to 8 nM
